Data taken from paper PMC4176381, “A combination of computational and experimental approaches identifies DNA sequence constraints associated with target site binding specificity of the transcription factor CSL”.

Assays:
GST-Su(H) (CSL) [1] = target: T1, GST-Su(H) (CSL) (UniProt P28159 110-594); experiment: competition; not detectable at 125x excess; ITC: 50 mM sodium phosphate pH 6.5, 150 mM NaCl, 10 C (10 uM CSL in cell, 100 uM DNA in syringe). EMSA: 150 mM KCl, 50 mM Tris pH 7.4, 1 mM DTT, 2% polyvinyl alcohol, 30 ng/ul poly(dI-dC), on ice 30 min, 25 fmol biotin probe in 5 ul; conditions: protein: recombinant; tags: N-terminal GST; blunt
CSL (RBPJ) [2] = target: T2, CSL (RBPJ) (Mus musculus, UniProt P31266 53-474); experiment: ITC; no binding detected; ITC: 50 mM sodium phosphate pH 6.5, 150 mM NaCl, 10 C (10 uM CSL in cell, 100 uM DNA in syringe). EMSA: 150 mM KCl, 50 mM Tris pH 7.4, 1 mM DTT, 2% polyvinyl alcohol, 30 ng/ul poly(dI-dC), on ice 30 min, 25 fmol biotin probe in 5 ul; conditions: protein: recombinant; tags: GST tag cleaved off
CSL (RBPJ) [3] = target: T2, CSL (RBPJ); experiment: ITC; K = 2.2 +/- 1.4 x10^7 M-1; n=3; ITC: 50 mM sodium phosphate pH 6.5, 150 mM NaCl, 10 C (10 uM CSL in cell, 100 uM DNA in syringe). EMSA: 150 mM KCl, 50 mM Tris pH 7.4, 1 mM DTT, 2% polyvinyl alcohol, 30 ng/ul poly(dI-dC), on ice 30 min, 25 fmol biotin probe in 5 ul; conditions: protein: recombinant; tags: GST tag cleaved off
GST-Su(H) (CSL) [4] = target: T1, GST-Su(H) (CSL); experiment: competition; EMSA, labeled M1 probe; 2.84-fold at 10x; ITC: 50 mM sodium phosphate pH 6.5, 150 mM NaCl, 10 C (10 uM CSL in cell, 100 uM DNA in syringe). EMSA: 150 mM KCl, 50 mM Tris pH 7.4, 1 mM DTT, 2% polyvinyl alcohol, 30 ng/ul poly(dI-dC), on ice 30 min, 25 fmol biotin probe in 5 ul; conditions: protein: recombinant; tags: N-terminal GST; blunt
CSL (RBPJ) [5] = target: T2, CSL (RBPJ); experiment: ITC; K = 2.0 +/- 0.5 x10^6 M-1; n=3; ITC: 50 mM sodium phosphate pH 6.5, 150 mM NaCl, 10 C (10 uM CSL in cell, 100 uM DNA in syringe). EMSA: 150 mM KCl, 50 mM Tris pH 7.4, 1 mM DTT, 2% polyvinyl alcohol, 30 ng/ul poly(dI-dC), on ice 30 min, 25 fmol biotin probe in 5 ul; conditions: protein: recombinant; tags: GST tag cleaved off
GST-Su(H) (CSL) [6] = target: T1, GST-Su(H) (CSL); experiment: competition; EMSA, labeled M1 probe; 2.4-fold vs M3; ITC: 50 mM sodium phosphate pH 6.5, 150 mM NaCl, 10 C (10 uM CSL in cell, 100 uM DNA in syringe). EMSA: 150 mM KCl, 50 mM Tris pH 7.4, 1 mM DTT, 2% polyvinyl alcohol, 30 ng/ul poly(dI-dC), on ice 30 min, 25 fmol biotin probe in 5 ul; conditions: protein: recombinant; tags: N-terminal GST; blunt
GST-Su(H) (CSL) [7] = target: T1, GST-Su(H) (CSL); experiment: EMSA; labeled probe; self-competes at 25x excess; ITC: 50 mM sodium phosphate pH 6.5, 150 mM NaCl, 10 C (10 uM CSL in cell, 100 uM DNA in syringe). EMSA: 150 mM KCl, 50 mM Tris pH 7.4, 1 mM DTT, 2% polyvinyl alcohol, 30 ng/ul poly(dI-dC), on ice 30 min, 25 fmol biotin probe in 5 ul; conditions: protein: recombinant; tags: N-terminal GST; label: 3' biotin when used as probe; blunt
CSL (RBPJ) [8] = target: T2, CSL (RBPJ); experiment: ITC; K = 5.9 +/- 1.0 x10^5 M-1; n=3; ITC: 50 mM sodium phosphate pH 6.5, 150 mM NaCl, 10 C (10 uM CSL in cell, 100 uM DNA in syringe). EMSA: 150 mM KCl, 50 mM Tris pH 7.4, 1 mM DTT, 2% polyvinyl alcohol, 30 ng/ul poly(dI-dC), on ice 30 min, 25 fmol biotin probe in 5 ul; conditions: protein: recombinant; tags: GST tag cleaved off
GST-Su(H) (CSL) [9] = target: T1, GST-Su(H) (CSL); experiment: competition; failed to compete at 125x; ITC: 50 mM sodium phosphate pH 6.5, 150 mM NaCl, 10 C (10 uM CSL in cell, 100 uM DNA in syringe). EMSA: 150 mM KCl, 50 mM Tris pH 7.4, 1 mM DTT, 2% polyvinyl alcohol, 30 ng/ul poly(dI-dC), on ice 30 min, 25 fmol biotin probe in 5 ul; conditions: protein: recombinant; tags: N-terminal GST; blunt

T1 sequence (P28159 110-594): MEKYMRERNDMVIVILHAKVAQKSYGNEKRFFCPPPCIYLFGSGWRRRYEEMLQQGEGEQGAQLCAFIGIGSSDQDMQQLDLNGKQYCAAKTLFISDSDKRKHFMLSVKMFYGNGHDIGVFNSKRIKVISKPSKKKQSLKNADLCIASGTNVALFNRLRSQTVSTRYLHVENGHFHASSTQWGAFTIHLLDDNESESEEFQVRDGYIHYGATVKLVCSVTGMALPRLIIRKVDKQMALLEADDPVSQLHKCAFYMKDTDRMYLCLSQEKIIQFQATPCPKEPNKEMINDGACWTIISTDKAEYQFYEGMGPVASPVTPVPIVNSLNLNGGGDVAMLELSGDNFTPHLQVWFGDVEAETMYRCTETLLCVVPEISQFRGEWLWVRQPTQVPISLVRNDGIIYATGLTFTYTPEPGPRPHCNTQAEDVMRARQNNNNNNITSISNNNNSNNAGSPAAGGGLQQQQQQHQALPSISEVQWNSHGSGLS
T2 sequence (P31266 53-474): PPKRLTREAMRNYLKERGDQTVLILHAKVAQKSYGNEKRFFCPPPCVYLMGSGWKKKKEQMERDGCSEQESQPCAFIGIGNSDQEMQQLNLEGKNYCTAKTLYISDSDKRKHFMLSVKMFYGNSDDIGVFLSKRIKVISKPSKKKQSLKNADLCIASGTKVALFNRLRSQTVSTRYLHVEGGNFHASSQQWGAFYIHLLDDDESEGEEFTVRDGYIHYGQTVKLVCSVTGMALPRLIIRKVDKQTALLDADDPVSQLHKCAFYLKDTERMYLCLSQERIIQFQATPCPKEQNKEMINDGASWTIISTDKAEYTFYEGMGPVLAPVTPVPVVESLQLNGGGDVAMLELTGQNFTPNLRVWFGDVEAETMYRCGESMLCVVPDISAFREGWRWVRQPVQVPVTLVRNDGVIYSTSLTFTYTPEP
T1 sequence (P28159 110-594): as the sequence (P28159 110-594) above

B1: M11 (S10, CATGGGGA) (dsDNA)
DNA 1: ACCGAAACCATGGGGACTGGTAGAAAG
DNA 2: CTTTCTACCAGTCCCCATGGTTTCGGT
- binding result (GST-Su(H) (CSL) [1]): no binding

B2: ITC duplex TCATACCT (dsDNA)
DNA 1: GCTACTCATACCTAGAACG
DNA 2: CGTTCTAGGTATGAGTAGC
- binding result (CSL (RBPJ) [2]): no binding

B3: ITC duplex CGTGGGAA (dsDNA)
DNA 1: GTTACCGTGGGAAAGAAAG
DNA 2: CTTTCTTTCCCACGGTAAC
- Kd (CSL (RBPJ) [3]): 60 nM

B4: M3 (S2, TGTGGGAA) (dsDNA)
DNA 1: ACCGAAACTGTGGGAACTGGTAGAAAG
DNA 2: CTTTCTACCAGTTCCCACTGTTTCGGT
- binding signal (GST-Su(H) (CSL) [4]): 3.67 fold difference vs M1 at 25x excess

B5: ITC duplex TGTGGGAA (dsDNA)
DNA 1: GTTACTGTGGGAAAGAAAG
DNA 2: CTTTCTTTCCCACAGTAAC
- Kd (CSL (RBPJ) [5]): 500 nM

B6: M4 (S3, CGTGTGAA) (dsDNA)
DNA 1: ACCGAAACCGTGTGAACTGGTAGAAAG
DNA 2: CTTTCTACCAGTTCACACGGTTTCGGT
- binding signal (GST-Su(H) (CSL) [6]): 9 fold difference vs M1 at 25x excess

B7: M1 (S1, CGTGGGAA) (dsDNA)
DNA 1: ACCGAAACCGTGGGAACTGGTAGAAAG
DNA 2: CTTTCTACCAGTTCCCACGGTTTCGGT
- binding result (GST-Su(H) (CSL) [7]): binds

B8: ITC duplex CGTGTGAC (dsDNA)
DNA 1: GTTACCGTGTGACAGAAAG
DNA 2: CTTTCTGTCACACGGTAAC
- Kd (CSL (RBPJ) [8]): 1720 nM

B9: M8 (S7, TATAAGAA) (dsDNA)
DNA 1: ACCGAAACTATAAGAACTGGTAGAAAG
DNA 2: CTTTCTACCAGTTCTTATAGTTTCGGT
- binding result (GST-Su(H) (CSL) [9]): no binding
